Reference: patent US20250179215A1, “PLASMIN-BINDING VHHS” (RHEINISCHE FRIEDRICH-WILHELMS-UNIVERSITÄT BONN, priority 2022, published 2025)

B1: VHH A11 including C-terminal His6-tag (VHH)
VHH: QVQLVETGGGLVQAGGSLRLSCAASGNIFSINAMDWYRQAPGKERELVAAITSGGTTNYADSVKGRFTISRDNAKDTVYLQMNSLKPEDAAFYYCNADGYYSDYDKNLAEFNSWGQGTQVTVSS
notes: Alpaca-derived
B2: VHH C5 including C-terminal His6-tag (VHH)
VHH: QVQLVESGGGLVQAGGSLRLSCAASGRRFMVVAMGWYRQAPGNQRELVASITNGGTTNYAGSVKGRFTISGDSAKNTVYLHMNSLKPEDTAVYYCTTDVVFRDGNGQIQSNWGQGTQVTVSS
notes: Alpaca-derived
B3: alpha2-antiplasmin (protein)
chain: NQEQVSPLTLLKLGNQEPGGQTALKSPPGVCSRDPTPEQTHRLARAMMAFTADLFSLVAQTSTCPNLILSPLSVALALSHLALGAQNHTLQRLQQVLHAGSGPCLPHLLSRLCQDLGPGAFRLAARMYLQKGFPIKEDFLEQSEQLFGAKPVSLTGKQEDDLANINQWVKEATEGKIQEFLSGLPEDTVLLLLNAIHFQGFWRNKFDPSLTQRDSFHLDEQFTVPVEMMQARTYPLRWFLLEQPEIQVAHFPFKNNMSFVVLVPTHFEWNVSQVLANLSWDTLHPPLVWERPTKVRLPKLYLKHQMDLVATLSQLGLQELFQAPDLRGISEQSLVVSGVQHQSTLELSEVGVEAAAATSIAMSRMSLSSFSVNRPFLFFIFEDTTGLPLFVGSVRNPNPSAPRELKEQQDSPGNKDFLQSLKGFPRGDKLFGPDLKLVPPMEEDYPQFGSPK

How the values were obtained:
[1] = biological target: T1, plasmin (Homo sapiens, UniProt P00747); assay: Activated factor V-inactivation assay (prothrombinase assay); format: biochemical
T1 construct: human Lys-plasmin which is prepared from homogeneous Glu-plasminogen using uPA; purchased Haematologic Technologies, Inc. (Essex Junction, VT)
Method: FIG. 6. (A) Influence of VHHs on plasmin-mediated FVa cleavage. Plasmin (1.5 nM) was incubated with increasing concentrations of VHHs for 30 min at 37° C. After addition of FVa (30 pM) and further incubation for 30 min, FXa (0.52 pM), prothrombin (10 nM) and a fluorogenic thrombin substrate (100 μM) were added and the FVa-dependent thrombin generation was measured. The FVa inactivation rate measured in the absence of VHHs or plasmin inhibitors was set as 100%. […] The data are presented as mean±SD of two independent measurements.
Plasmin-mediated inactivation of activated factor V (FVa) was measured using a prothrombinase assay as recently described (Hamedani 2020). Briefly, 1.5 nM plasmin in assay buffer (20 mM Tris-HCl, 137 mM NaCl, 10 mg/ml phospholipids, 5 mM CaCl2, 1 mg/ml BSA, pH 7.4) was preincubated with VHHs (0.1 nM-10 μM final concentrations) for 30 min at 37° C. Then, 60 μl of the mixture were mixed with 60 μl of […] FVa. After further incubation for 30 min, 25 μl of the reaction mixture were mixed with 50 μl of 1.3 μM human FXa and 100 μM fluorogenic thrombin substrate (Boc-Asp(OBzl)-Pro-Arg-AMC) and 50 μl of 10 nM human prothrombin. Thrombin catalyzed substrate hydrolysis was monitored at λex of 360 nm and λem of 460 nm using the Synergy 2 microplate reader.

[2] = biological target: T1, plasmin; assay: Stability of plasmin (autocatalytic degradation) in activation buffer; format: biochemical; settings: 100 mM TXA or lysine in buffer
[3] = biological target: T1, plasmin; assay: Michaelis-Menten kinetics of plasmin-mediated cleavage of fluorogenic peptide substrate; format: biochemical; settings: plasmin 5 nM; VHHs 1 μM, BPTI 3 nM, TXA 7.86 mg/ml; w/o ligand 51.8
Method: Subsequently, 50 μl of the fluorogenic substrate (3.16-3,160 μM final concentration in assay buffer) was added. Substrate hydrolysis rates were monitored by kinetic measurements using the Synergy 2 microplate reader. Apparent Michaelis-Menten constants (Km) and the turn-over number (kcat) values for substrate hydrolysis were calculated from best fit values of the Michaelis-Menten equation and the catalytic efficiencies were expressed as ratios of kcat/Km.
CI, confidence interval. ^a The turnover number (kcat) was calculated using Vmax values extracted from Michaelis-Menten least squares fit.

[4] = test system: citrate-anticoagulated pooled normal human plasma; assay: Rotational thrombelastometry clot formation parameters in plasma; format: biochemical; settings: VHHs or BPTI 2.4 μM, TXA 2.4 μg/ml; tPA 0.1 μg/ml
Method: FIG. 10. The impact of VHHs on the clot formation parameters in plasma monitored by rotational thrombelastometry. […] After addition of tPA to reach a final concentration of 0.1 μg/ml, coagulation was initiated by addition of recombinant tissue factor (Dade® Innovin®) dissolved 1:100 in calcium chloride solution (0.2 M). The viscoelasticity of the formed clot was measured in terms of (A) clotting time, (B) maximum clot firmness, and (C) maximum clot elasticity. A non-binder VHH (GFP-enhancer VHH) was used as negative control. Mean values and SD were calculated out of three measurements.
(§1) The impact of VHHs on the fibrinolytic activity in plasma and whole blood was monitored using rotational thrombelastometry using the ROTEM delta system (TEM Innovations Ltd., Munich, Germany). […] After addition of 0.1 μg/ml tPA, coagulation was initiated by addition of recombinant tissue factor (Dade Innovin, Siemens Healthcare, Marburg, Germany) dissolved 1:100 in calcium chloride (0.2 M). The viscoelasticity of the formed clot was measured in terms of key parameters including clotting time, maximal clot firmness, maximum clot elasticity, maximum lysis, lysis index after 60 minutes, and lysis onset time.

[5] = biological target: T2, plasminogen (Homo sapiens, UniProt P00747); assay: Plasmin generation assay (tPA-mediated plasminogen activation, purified system); format: biochemical; settings: at the assessed / higher concentrations
T2 construct: Plasma derived human Glu-plasminogen; purchased Haematologic Technologies, Inc. (plasminogen); Boehringer Ingelheim (tPA)
Method: In order to assess the influence of VHHs on tPA-mediated plasminogen activation, plasminogen was preincubated with increasing concentrations of VHHs. After addition of tPA, plasmin generation was measured over time using a fluorogenic plasmin peptide substrate.
FIG. 5. Influence of VHHs on tPA-mediated plasminogen activation. […] After addition of tPA (10 nM final concentration) plasmin generation was measured over time using the fluorogenic plasmin assay. The data are presented as mean±SD of three independent measurements.
Plasminogen (50 nM) was incubated with VHHs (2 μM to 0.2 μM) for 30 min at 37° C. in assay buffer. Subsequently, 20 μl of 50 nM tPA was added to the mixture and incubated at 37° C. After 3 hours of incubation at 37° C., 50 μl of the mixture were transferred to the wells of black F16 Fluoronunc modules and after addition of 50 μl of the plasmin-specific fluorogenic substrate (800 μM) fluorescence intensities were measured at λex of 360 nm and λem of 460 nm using the Synergy 2 microplate reader.

[6] = test system: citrate-anticoagulated whole blood; assay: Rotational thrombelastometry clot lysis in tPA-spiked whole blood; format: biochemical; settings: tPA-spiked whole blood
Text: To further test the fibrinolysis-activating properties of VHHs in an ex-vivo model of hyperfibrinolysis, a whole blood based assay can be used whereat citrate-anticoagulated whole blood in the presence of VHHs is spiked with tPA and clot formation and the fibrinolysis rate of the formed clot monitored by thrombelastometry after initiation of clotting by addition of CaCl2) solution containing recombinant TF.
FIG. 4. Influence of VHHs on endogenous fibrinolysis. (A) Citrate-anticoagulated whole blood was mixed with VHHs A11 or C5 and with tPA to achieve a final concentration of 0.5 μg/ml and clot formation was induced by addition of CaCl2) (0.2 M). (B) Lysis index at 60 min(C) Maximum lysis rates, and (D) lysis onset time were recorded. Mean values and SD were calculated out of three measurements.
as §1

[7] = biological target: T3, human plasmin (human, UniProt P00747 97-580; P00747 581-810); assay: competition ELISA: C5 coated on the plate (10 µg/ml), plasmin 10 nM with free A11 as competitor of immobilized C5; bound plasmin read by hydrolysis of a fluorogenic substrate
T3 construct: domain: heavy chain or A-chain;domain: light chain that contains the serine protease domain; Two-chain protease derived from plasminogen; also called PLM; human Lys-plasmin
Method: (§2) FIG. 2. VHHs competition ELISA. […] Data represent the mean±SD of two measurements.
(§3) To assess the competition of VHHs for similar or overlapping binding sites on the plasmin molecule, a competition ELISA was performed. Microtiter (96-well) plates were coated with VHHs (10 μg/ml in coating buffer, 100 μl/well) at 2-8° C. overnight. Wells were washed and non-specific protein-binding sites were blocked with 20 mg/ml bovine serum albumine (BSA) for 2 h at RT. After removing the blocking buffer, wells were overlaid with a reaction mixture containing plasmin (10 nM) and VHHs (0.316 nM-31.6 μM) in buffer (20 mM HEPES, 154 mM NaCl, BSA 1 mg/ml, pH 7.4) for 30 min at RT. After washing the amount of bound plasmin was quantified through hydrolysis rates of the fluorogenic plasmin substrate (300 μM, 100 μl/well). The fluorescence intensity measured in the absence of free VHHs was set as 100%.

[8] = biological target: T3, human plasmin; assay: cell-based or functional assay
[9] = biological target: T3, human plasmin; assay: competition ELISA: A11 coated on the plate (10 µg/ml), plasmin 10 nM with free A11 (self-competition); bound plasmin read by hydrolysis of a fluorogenic substrate
Method: as §2, §3

[10] = biological target: T4, human plasminogen (human, UniProt P00747 20-810); assay: BLI (BLItz), His-tagged VHH on anti-HIS biosensor
T4 construct: mature; Purchased plasma-derived Glu-plasminogen or in-house plasma-purified plasminogen; also called human PLG; plasma derived human Glu-plasminogen

[11] = biological target: T3, human plasmin; assay: BLI (BLItz), His-tagged VHH on anti-HIS biosensor
[12] = biological target: T5, mouse plasminogen (mouse, UniProt P20918 20-812); assay: BLI (BLItz), His-tagged VHH on anti-HIS biosensor
T5 construct: mature; also called mouse Glu-plasminogen

[13] = biological target: T6, mouse plasmin (mouse, UniProt P20918 98-581; P20918 582-812); assay: BLI (BLItz), His-tagged VHH on anti-HIS biosensor
T6 construct: domain: heavy chain or A-chain;domain: light chain that contains the serine protease domain; Purchased from Haematologic Technologies

[14] = biological target: T7, tissue plasminogen activator (recombinant tPA, Actilyse) (UniProt P00750 36-562); assay: BLI (BLItz), His-tagged VHH on anti-HIS biosensor
T7 construct: Actilyse is recombinant human tPA (alteplase)

[15] = biological target: T3, human plasmin; assay: cell-based or functional assay; remark: listed apart in the source
[16] = biological target: T3, human plasmin; assay: competition ELISA: C5 coated on the plate (10 µg/ml), plasmin 10 nM with free C5 (self-competition); bound plasmin read by hydrolysis of a fluorogenic substrate
Method: as §2, §3

[17] = biological target: T3, human plasmin; assay: competition ELISA: A11 coated on the plate (10 µg/ml), plasmin 10 nM with free C5 as competitor of immobilized A11; bound plasmin read by hydrolysis of a fluorogenic substrate
Method: as §2, §3

[18] = biological target: T1, plasmin; assay: Plasmin inhibition assay (α2-AP-mediated plasmin inactivation); format: biochemical; settings: α2AP alone, molar excess of α2AP over plasmin
Method: FIG. 7. Impact of VHHs binding on α2-AP-mediated plasmin inactivation. […] After 30 min of incubation, the residual activity of plasmin was measured by addition of 50 μl of the sample to 50 μl of a plasmin-specific fluorogenic substrate (400 μM). The plasmin activity in the wells in the absence of VHHs and α2AP was considered as 100% activity and relative residual plasmin activities calculated accordingly. The data are presented as mean±SD of three independent measurements.
After incubation for 30 min at 37° C., 50 μl of the mixture were transferred to the wells of black F16 Fluoronunc modules and 50 μl of plasmin-specific fluorogenic substrate (800 μM) were added and substrate hydrolysis measured at λex of 360 nm and λem of 460 nm. The plasmin activity in the reactions containing all reagents except α2-AP was set as 100%.

T1 sequence (P00747 97-580 limits assumed): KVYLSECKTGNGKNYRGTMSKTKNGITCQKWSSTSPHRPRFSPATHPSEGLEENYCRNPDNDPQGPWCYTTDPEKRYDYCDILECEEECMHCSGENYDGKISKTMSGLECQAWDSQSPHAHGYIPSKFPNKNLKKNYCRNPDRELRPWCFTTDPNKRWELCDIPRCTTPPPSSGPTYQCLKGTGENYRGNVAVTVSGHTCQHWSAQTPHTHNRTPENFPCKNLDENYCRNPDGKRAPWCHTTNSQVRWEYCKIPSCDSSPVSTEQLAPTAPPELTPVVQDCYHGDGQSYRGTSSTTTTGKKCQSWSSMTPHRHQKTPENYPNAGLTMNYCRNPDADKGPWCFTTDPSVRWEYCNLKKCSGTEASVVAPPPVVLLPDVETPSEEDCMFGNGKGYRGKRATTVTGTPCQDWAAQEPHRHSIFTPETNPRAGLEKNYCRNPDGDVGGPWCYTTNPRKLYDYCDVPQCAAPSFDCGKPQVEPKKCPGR
T1 sequence (P00747 581-810 limits assumed): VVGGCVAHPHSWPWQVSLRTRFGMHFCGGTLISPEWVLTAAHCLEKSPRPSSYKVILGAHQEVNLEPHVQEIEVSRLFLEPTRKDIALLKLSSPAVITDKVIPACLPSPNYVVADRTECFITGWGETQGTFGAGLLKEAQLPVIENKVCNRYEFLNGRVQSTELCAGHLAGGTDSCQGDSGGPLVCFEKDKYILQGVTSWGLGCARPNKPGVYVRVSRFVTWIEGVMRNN
T3 sequence (P00747 97-580 limits assumed, chain 1 of 2): as the sequence (P00747 97-580 limits assumed) above
T3 sequence (P00747 581-810 limits assumed, chain 2 of 2): as the sequence (P00747 581-810 limits assumed) above
T5 sequence (P20918 20-812 limits assumed): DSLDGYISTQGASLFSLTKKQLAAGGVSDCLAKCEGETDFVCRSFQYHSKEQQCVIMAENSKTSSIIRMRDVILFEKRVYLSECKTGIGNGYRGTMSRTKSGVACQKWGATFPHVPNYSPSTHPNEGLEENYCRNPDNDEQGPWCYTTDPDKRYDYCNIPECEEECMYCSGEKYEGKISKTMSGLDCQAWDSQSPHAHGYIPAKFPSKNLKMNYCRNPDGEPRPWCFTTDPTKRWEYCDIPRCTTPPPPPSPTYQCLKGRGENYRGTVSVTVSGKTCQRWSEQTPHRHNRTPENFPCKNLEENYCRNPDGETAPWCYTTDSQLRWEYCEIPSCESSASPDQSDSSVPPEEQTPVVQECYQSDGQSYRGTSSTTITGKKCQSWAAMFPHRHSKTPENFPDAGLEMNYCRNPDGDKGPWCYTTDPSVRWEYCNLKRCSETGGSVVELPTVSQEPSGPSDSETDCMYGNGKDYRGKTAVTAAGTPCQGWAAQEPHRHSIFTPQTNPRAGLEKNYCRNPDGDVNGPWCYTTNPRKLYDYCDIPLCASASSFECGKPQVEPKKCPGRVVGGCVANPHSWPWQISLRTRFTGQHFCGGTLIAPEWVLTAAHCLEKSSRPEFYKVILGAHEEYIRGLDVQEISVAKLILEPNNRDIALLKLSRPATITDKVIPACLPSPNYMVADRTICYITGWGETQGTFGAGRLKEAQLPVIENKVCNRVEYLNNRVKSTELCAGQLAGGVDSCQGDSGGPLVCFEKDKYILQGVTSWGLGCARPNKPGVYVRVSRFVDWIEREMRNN
T6 sequence (P20918 98-581 limits assumed, chain 1 of 2): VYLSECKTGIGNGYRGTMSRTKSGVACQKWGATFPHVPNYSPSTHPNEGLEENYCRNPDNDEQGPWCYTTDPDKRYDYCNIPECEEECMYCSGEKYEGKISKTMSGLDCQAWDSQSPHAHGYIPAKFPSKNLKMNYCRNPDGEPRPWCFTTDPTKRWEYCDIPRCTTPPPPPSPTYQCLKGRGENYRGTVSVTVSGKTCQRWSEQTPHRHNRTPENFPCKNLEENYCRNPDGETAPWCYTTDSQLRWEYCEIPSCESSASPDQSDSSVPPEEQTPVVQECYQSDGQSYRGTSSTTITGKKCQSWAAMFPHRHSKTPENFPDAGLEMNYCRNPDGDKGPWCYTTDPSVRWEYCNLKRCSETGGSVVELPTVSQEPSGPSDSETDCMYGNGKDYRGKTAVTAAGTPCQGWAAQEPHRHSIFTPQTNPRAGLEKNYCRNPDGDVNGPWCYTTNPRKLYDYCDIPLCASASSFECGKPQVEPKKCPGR
T6 sequence (P20918 582-812 limits assumed, chain 2 of 2): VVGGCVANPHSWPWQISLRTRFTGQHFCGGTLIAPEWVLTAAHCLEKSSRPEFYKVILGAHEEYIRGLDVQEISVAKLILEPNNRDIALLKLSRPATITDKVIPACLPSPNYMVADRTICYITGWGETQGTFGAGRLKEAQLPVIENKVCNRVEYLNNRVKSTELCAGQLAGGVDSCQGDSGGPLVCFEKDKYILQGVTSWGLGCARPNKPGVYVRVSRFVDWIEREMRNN
T7 sequence (P00750 36-562 limits assumed): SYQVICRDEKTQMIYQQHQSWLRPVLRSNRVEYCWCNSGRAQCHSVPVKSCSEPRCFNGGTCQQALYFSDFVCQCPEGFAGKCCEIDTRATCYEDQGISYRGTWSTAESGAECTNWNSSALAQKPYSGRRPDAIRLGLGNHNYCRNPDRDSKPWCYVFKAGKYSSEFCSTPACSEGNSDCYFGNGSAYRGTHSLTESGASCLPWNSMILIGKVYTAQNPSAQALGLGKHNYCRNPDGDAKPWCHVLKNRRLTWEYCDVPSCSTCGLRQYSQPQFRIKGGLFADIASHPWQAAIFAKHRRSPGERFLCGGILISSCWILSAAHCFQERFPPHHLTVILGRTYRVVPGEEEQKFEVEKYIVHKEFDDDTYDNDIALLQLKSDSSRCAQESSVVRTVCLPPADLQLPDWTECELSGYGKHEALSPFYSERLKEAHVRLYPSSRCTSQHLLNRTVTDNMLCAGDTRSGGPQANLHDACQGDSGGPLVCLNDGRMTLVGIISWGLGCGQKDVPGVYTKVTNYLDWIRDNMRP
T4 sequence (P00747 20-810 limits assumed): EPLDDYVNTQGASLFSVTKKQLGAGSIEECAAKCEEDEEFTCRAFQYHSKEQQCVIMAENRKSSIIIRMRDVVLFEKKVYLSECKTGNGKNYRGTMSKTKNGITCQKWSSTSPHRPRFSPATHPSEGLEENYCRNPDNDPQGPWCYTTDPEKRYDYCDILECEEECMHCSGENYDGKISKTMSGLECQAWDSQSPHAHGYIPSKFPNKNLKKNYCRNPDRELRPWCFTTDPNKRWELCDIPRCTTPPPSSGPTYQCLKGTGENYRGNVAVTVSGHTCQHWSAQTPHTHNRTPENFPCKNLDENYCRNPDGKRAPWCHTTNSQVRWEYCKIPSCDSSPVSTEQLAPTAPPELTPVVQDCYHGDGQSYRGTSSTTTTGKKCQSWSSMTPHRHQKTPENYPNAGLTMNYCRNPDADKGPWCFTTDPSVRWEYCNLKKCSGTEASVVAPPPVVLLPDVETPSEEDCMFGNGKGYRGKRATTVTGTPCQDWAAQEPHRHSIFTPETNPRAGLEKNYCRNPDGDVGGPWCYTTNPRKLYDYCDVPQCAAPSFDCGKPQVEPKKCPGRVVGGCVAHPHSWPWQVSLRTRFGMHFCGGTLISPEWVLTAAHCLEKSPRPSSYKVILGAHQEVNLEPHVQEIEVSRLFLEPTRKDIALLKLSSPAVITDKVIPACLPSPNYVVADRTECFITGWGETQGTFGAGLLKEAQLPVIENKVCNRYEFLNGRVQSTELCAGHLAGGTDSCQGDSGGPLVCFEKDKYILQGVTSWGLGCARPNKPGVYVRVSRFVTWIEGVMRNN
T2 sequence (P00747 20-810 limits assumed): as above

Molecule | Kcat/Km of plasmin-mediated cleavage of fluorogenic peptide substrate, VHH 1 µM [8] | kcat of plasmin-mediated cleavage of fluorogenic peptide substrate, VHH 1 µM [8] | Kd [10] | Kd [11] | Kd [12] | Kd [13] | Kd [14] | other results
NC[C@H]1CC[C@H](C(=O)O)CC1 [TXA, tranexamic acid, reference compound] |  |  |  |  |  |  |  | maximal rate of inhibition of plasmin-mediated cleavage of FVa ([1]; TXA 316 μM or higher): 48%; FVa cleavage at lower TXA concentrations ([1]; lower TXA concentrations): accelerated; protection of plasmin from autocatalytic degradation [2]: more effective than lysine; kcat × 10^3 (s^−1) mean (95% CI) [3]: 42.1 (40-44) s^−1; effect on fibrin clot formation parameters (clotting time, maximum clot firmness, maximum clot elasticity) [4]: does not affect; inhibition of plasmin generation at higher concentrations [5]: plasmin generation is blocked; effect on lysis compared to VHHs (FIG. 4C, maximum lysis rates) [6]: inhibition of lysis
B1 | 2.28e+08 M⁻¹ s⁻¹ | 67200 s⁻¹ | > 100 nM | 4.7 nM | > 1000 nM | 87.3 nM | 941 nM | IC50 (read off the curve) [7]: ~1000 nM; IC50 (read off the curve) [9]: ~500 nM; increase in plasmin peptide substrate conversion, at molar ratio of VHH over plasmin of 158 [15]: ~2.5 fold
B2 | 2.44e+08 M⁻¹ s⁻¹ | 69900 s⁻¹ | > 100 nM | 6.8 nM | > 1000 nM | 172 nM | 213 nM | IC50 (read off the curve) [16]: ~2000 nM; increase in plasmin peptide substrate conversion, at molar ratio of VHH over plasmin of 500 [15]: ~2.5 fold; IC50 (read off the curve) [17]: ~500 nM
B3 |  |  |  |  |  |  |  | residual plasmin activity [18]: < 0.1%
